Test results taken from doi:10.1101/2024.05.22.595265 (bioRxiv, 2024).

T1: Aurora-A kinase domain 122-403 C290A,C393A (UniProt O14965 122-403, C290A | C393A)
T1 construct: Aurora-A Ser/Thr kinase, kinase domain, residues 122-403
T1 sequence (looked up): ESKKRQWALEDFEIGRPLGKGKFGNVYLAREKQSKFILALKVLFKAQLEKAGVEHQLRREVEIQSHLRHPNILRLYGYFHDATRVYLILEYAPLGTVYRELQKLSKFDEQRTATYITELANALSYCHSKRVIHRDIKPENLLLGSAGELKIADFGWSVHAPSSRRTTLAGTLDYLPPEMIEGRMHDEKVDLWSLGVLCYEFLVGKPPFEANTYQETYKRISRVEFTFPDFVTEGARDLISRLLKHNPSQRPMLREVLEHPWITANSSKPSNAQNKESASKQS


Target: T1, Aurora-A kinase domain 122-403 …
Assay: NMR titration; 1H-15N HSQC of 15N-labelled N-myc constructs (150-315 uM); aliquots of Aurora-A (305-400 uM) added up to [N-myc]:[Aurora-A] 1:1.4; 20 mM (K/H)3PO4 pH 6.5, 150 mM NaCl, 2 mM beta-mercaptoethanol, 1% glycerol, 5 mM MgCl2, 5 mM ADP
Details: both partners purified

Row | binding result | Binder
1 | binds | N-myc 64-137 (domain or fragment, N-myc residues 64-137 (AIH and MBII); 15N-labelled; not shown: His-NusA, N-terminal, cleaved) GAMGSRGFAEHSSEPPSWVTEMLLENELWGSPAEEDAFGLGGLGGLTPNPVILQDCMWSGFSAREKLERAVSEKLQHG
2 | binds | N-myc transactivation domain, N-myc 1-137 (domain or fragment, 15N-labelled for the NMR titration; also called N-myc TAD; N-myc_(1-137) TAD; not shown: His-NusA, N-terminal, cleaved) GAMMPSCSTSTMPGMICKNPDLEFDSLQPCFYPDEDDFYFGGPDSTPPGEDIWKKFELLPTPPLSPSRGFAEHSSEPPSWVTEMLLENELWGSPAEEDAFGLGGLGGLTPNPVILQDCMWSGFSAREKLERAVSEKLQHG
